# Laboratory results as given in patent US10058586B2, “Use of human small leucine zipper protein in adipocyte differentiation procedure” (Korea University Research and Business Foundation, priority 2013, dated 2018).
# Key:
# HDAC3 = test: GST pull-down of GST-HDAC3 and Flag-sLZIP in 293T cells; type: binding
# Experimental: 293T cells were obtained and washed with cold PBS. The cells were re-suspended in an IP lysis buffer [25 mM of Tris-HCl (pH 7.4), 150 mM of NaCl, 1 mM of EDTA, 1% NP-40 and 5% glycerol, and a protease inhibitor]. A suspension was centrifuged at 16,000×g for 20 minutes at 4° C. Supernatants were collected and incubated with 0.5 μg of appropriate antibodies and 25 μl of protein A/G-agarose or a GST Sepharose 4B bead for 24 hours at 4° C. A protein complex was centrifuged at 1,000×g with a cold IP lysis buffer for 1 minute and washed five times. The final pellet was re-suspended in 50 μl of an SDS-sample buffer containing 5% β-mercaptoethanol and heated for 10 minutes at 100° C. […] Co-precipitated proteins were detected according to western blotting using specific antibodies.
# For this purpose, 293T cells were transiently transfected with PPARγ2 (0.5 μg), (3-galactosidase (0.1 μg), FABP4-Luc reporter genes (0.2 μg) and sLZIP (0.1 μg). After the transfection, the cells were stimulated with or without 10 nM of RZD and 10 nM of TSA (FIG. 4A). A promoter activity was measured according to luciferase analysis. In the 293T cells, FABP4-Luc reporter genes, sLZIP, PPAR, β-galactosidase, and 100 nM of si-RNAs and HDAC1, 2, 3 and 8 for a control group were expressed. After the transfection, the cells were stimulated with or without 10 nM of RZD, and a promoter activity was measured (FIG. 4B). […]
# PGC1α = test: GST pull-down of GST-PPARγ2 with anti-PGC1α immunoblot in 293T cells; type: binding; conditions: 10 nM RZD for 24 hours
# Experimental: Therefore, in order to understand a regulation mechanism of sLZIP in the PPARγ2 transcriptional activity by binding to the FABP4 promoter region, an effect of sLZIP on the interaction between PPARγ2 and HDAC3 was examined. For this purpose, 293T cells were transfected with GST-HDAC3, Myc-PPARγ2 and Flag-sLZIP, and were treated or not treated with 10 nM of RZD for 24 hours. Cell lysates were subjected to GST pull-down analysis using a glutathione 4B bead, and a protein complex was analyzed in SDS-PAGE, and then immunoblotted with anti-GST, anti-Myc and anti-Flag antibodies (FIG. 6A). GST-HDAC3, GST-PPARγ2, Myc-PPARγ2, Flag-sLZIP and Ha-UB were expressed in the 293T cells, and the cells were treated with 10 nM of RZD for 24 hours. Cell lysates were subjected to GST pull-down analysis (FIG. 6B). GST-PPARγ2 and Flag-sLZIP were expressed in the 293T cells and treated with 10 nM of RZD for 24 hours. Cell lysates were subjected to GST pull-down analysis, and a protein complex was analyzed in SDS-PAGE, and then immunoblotted with anti-PGC1α, anti-GST and anti-Flag antibodies (FIG. 6C).
molecule,measurement,setting,value
"sLZIP: human small leucine-zipper protein, isoform of LZIP, 354 amino acids, no transmembrane domain; GenBank FJ263669, SEQ ID NO: 1 (protein, listed as Homo sapiens) MELELDAGDQDLLAFLLEESGDLGTAPDEAVRAPLDWALPLSEVPSDWEVDDLLCSLLSPPASLNILSSSNPCLVHHDHTYSLPRETVSMDLESESCRKEGTQMTPQHMEELAEQEIARLVLTDEEKSLLEKEGLILPETLPLTKTEEQILKRVRRKIRNKRSAQESRRKKKVYVGGLESRVLKYTAQNMELQNKVQLLEEQNLSLLDQLRKLQAMVIEISNKTSSSSMYSSDTRGSLPAEHGVLSRQLRALPSEDPYQLELPALQSEVPKDSTHQWLDGSDCVLQAPGNTSCLLHYMPQAPSAEPPLEWPFPDLFSEPLCRGPILPLQANLTRKGGWLPTGSPSVILQDRYSG",interaction with HDAC3 (GST pull-down),HDAC3; 10 nM RZD for 24 hours,HDAC3 was remained as being interacted with sLZIP
same,interaction with HDAC3 (GST pull-down),HDAC3; no RZD,interacted with HDAC3 in a PPARγ2 corepressor complex
same,recruitment of coactivator PGC-1α to PPARγ2,PGC1α,inhibited the complementing of a coactivator PGC-la for PPARγ2
